The text below walks through data of patent publication US20210101977A1.

Experiment [1] has as its target full-length isoform 2 of human CD96 (SEQ ID NO: 128) expressed on cells (human) (UniProt P40200). Kind of experiment: flow cytometry (MFI against concentration), CHO cells expressing human CD96 isoform 2. (In general: In flow cytometry, cells or beads pass a laser one at a time.)
The target is the same in experiment [2]. The experiment is described as follows: flow cytometry (MFI against concentration), Jurkat cells expressing human CD96 isoform 2.
For experiment [3], the target named is isoform 2 of cynomolgus monkey CD96 (SEQ ID NO: 133) expressed on CHO cells (cynomolgus monkey). The experiment is described as follows: flow cytometry (MFI against concentration), CHO cells expressing cynomolgus CD96 isoform 2.
Experiment [4] deals with full-length isoform 1 of human CD96 (SEQ ID NO: 127) expressed on CHO cells (human) (UniProt P40200). The experiment is described as follows: flow cytometry (MFI against concentration), CHO cells expressing human CD96 isoform 1.
For experiment [5], the target named is cynomolgus monkey CD96 on activated primary cynomolgus T cells (cynomolgus monkey). The experiment is described as follows: flow cytometry (MFI against concentration), activated primary cynomolgus T cells.

With IgG1 isotype control antibody, the Area under the curve (AUC) in experiment [1] was 5810; in experiment [2] it was 4760; in experiment [3], 6030; in experiment [4], 43500; in experiment [5] it was 1270.
